This is an account of results in the supplement of paper PMC7877785.

± gives the uncertainty stated by the source.

A short description of this data set: self-splicing fitness, log relative to wild type (ln ratio); higher = more splicing; Tetrahymena group I intron in knt gene, E. coli kanamycin selection, DiMSum; sequences stand for … in CUCUCU…GGAGGGAAAAGUUAUCAGGCAUGCACCUGGUAGCUAGUCUUUAAACCAAUAGAUUGCAUCGGUUUAAAAGGCAAGACCGUCAAAUUGCGGGAAAGGGGUCAACAGCCGUUCAGUACCAAGUCUCAGGGGAAACUUUGAGAUGGCCUUGCAAAGGGUAUGGUAAUAAGCUGACGGACAUGGUCCUAACCACGCAGCCAAGUCCUAAGUCAACAGAUCUUCUGUUGAUAUGGAUGCAGUUCACAGACUAAAUGUCGGUCGGGGAAGAUGUAUUCUUCUCAUAAGAUAUAGUCGGACCUCUCCUUAAUGGGAGCUAGCGGAUGAAGUGAUGCAACACUGGAGCCGCUGGGAACUAAUUUGUAUGCGAAAGUAUAUUGAUUAGUUUUGGAGUACUCGUGGUCG
In a few lines: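 DiMSum derived fitness as the error-weighted combination of fold changes across replicates, kanamycin versus no kanamycin, normalised to wild type. E. coli BL21(DE3) held the library, which randomised all eight P1ex-region intron nucleotides within the knt kanamycin-resistance gene on pET-22b(+). Six replicate transformations grew overnight at 37°C or 30°C on LB agar with or without 25 μg/mL kanamycin, also containing 100 μg/mL carbenicillin, 50 μM IPTG and 0.2% rhamnose, and pooled colonies were amplicon-sequenced on an Illumina HiSeq 2500.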

UACGAGCAAUAUUACGUCAG: the “self-splicing fitness (ln)” value is -3.08 ± 0.34 (30 °C) and -3.01 ± 0.36 (37 °C).

In the case of CGUCAGCAAUAUUACGGGCG, the “self-splicing fitness (ln)” value runs as follows: (30 °C) -3.15 ± 0.16; (37 °C) -2.8 ± 0.21.

Regarding GCUUAGCAAUAUUACGCUCC, the “self-splicing fitness (ln)” value was -0.928 ± 0.15 (30 °C) and -1.09 ± 0.26 (37 °C).

Consider GAGGAGCAAUAUUACGUGCA, for which the “self-splicing fitness (ln)” value runs as follows: (30 °C) -3.41 ± 0.34; (37 °C) -1.31 ± 0.17.

On to UCGCAGCAAUAUUACGAGUU, for which the “self-splicing fitness (ln)” value reads like this: (30 °C) -4.47 ± 0.28; (37 °C) -1.95 ± 0.23.

As to UUAAAGCAAUAUUACGUGUA, the “self-splicing fitness (ln)” value is, setting by setting: (30 °C) -0.993 ± 0.066; (37 °C) 0.0738 ± 0.08.

Turning to CCUCAGCAAUAUUACGCAAA, the “self-splicing fitness (ln)” value (37 °C) is -2.46 ± 0.3.

CGUGAGCAAUAUUACGCCUG: the “self-splicing fitness (ln)” value reads like this: (30 °C) -1.76 ± 0.26; (37 °C) -0.852 ± 0.36.

For the sequence UCUCAGCAAUAUUACGUAAG, the “self-splicing fitness (ln)” value by setting is: (30 °C) -2.07 ± 0.12; (37 °C) -1.17 ± 0.13.

Turning to ACCAAGCAAUAUUACGGUUU, the “self-splicing fitness (ln)” value was -3.14 ± 0.11 (30 °C) and -2.08 ± 0.1 (37 °C).

Regarding CUUCAGCAAUAUUACGUCUC, the “self-splicing fitness (ln)” value is -3.17 ± 0.2 (30 °C) and -3.03 ± 0.2 (37 °C).

On to GGGAAGCAAUAUUACGUGAU, for which the “self-splicing fitness (ln)” value was -2.04 ± 0.1 (30 °C) and -1.83 ± 0.16 (37 °C).

Turning to GGCCAGCAAUAUUACGGGAU, the “self-splicing fitness (ln)” value runs as follows: (30 °C) -1.73 ± 0.097; (37 °C) -0.354 ± 0.1.

For CCCCAGCAAUAUUACGACAU, the “self-splicing fitness (ln)” value (30 °C) is -3.936 ± 0.02 and the “self-splicing fitness (ln)” value (37 °C) is -2.94 ± 0.037.

For CAGUAGCAAUAUUACGUAGU, the “self-splicing fitness (ln)” value (30 °C) was -2.5 ± 0.13 and the “self-splicing fitness (ln)” value (37 °C) is -2.54 ± 0.18.

For the sequence GCGAAGCAAUAUUACGGUCA, the “self-splicing fitness (ln)” value by setting is: (30 °C) -1.7 ± 0.11; (37 °C) -1.36 ± 0.1.

On to AUCUAGCAAUAUUACGGAUC, for which the “self-splicing fitness (ln)” value is, setting by setting: (30 °C) -3.03 ± 0.17; (37 °C) -2.33 ± 0.24.

As to CGUCAGCAAUAUUACGCAUU, the “self-splicing fitness (ln)” value by setting is: (30 °C) -3.62 ± 0.16; (37 °C) -2.31 ± 0.16.

Take AACCAGCAAUAUUACGACUU: the “self-splicing fitness (ln)” value came out at 0.018 ± 0.059 (30 °C) and 0.437 ± 0.077 (37 °C).

As to CACUAGCAAUAUUACGUGGA, the “self-splicing fitness (ln)” value is -3.76 ± 0.32 (30 °C) and -2.44 ± 0.14 (37 °C).

As to UAUCAGCAAUAUUACGGGGA, the “self-splicing fitness (ln)” value is -1.76 ± 0.094 (30 °C) and -0.643 ± 0.1 (37 °C).

Regarding UUUAAGCAAUAUUACGUUCU, the “self-splicing fitness (ln)” value is, setting by setting: (30 °C) -1.53 ± 0.11; (37 °C) -0.963 ± 0.11.

Regarding UCCUAGCAAUAUUACGAGAU, the “self-splicing fitness (ln)” value was -2.85 ± 0.16 (30 °C) and -1.7 ± 0.19 (37 °C).

On to CUGGAGCAAUAUUACGUUAU, for which the “self-splicing fitness (ln)” value by setting is: (30 °C) -4.35 ± 0.31; (37 °C) -2.82 ± 0.26.

Take GCUUAGCAAUAUUACGUAGU: the “self-splicing fitness (ln)” value (30 °C) is -1.2 ± 0.092 and the “self-splicing fitness (ln)” value (37 °C) is -0.156 ± 0.11.

Turning to CGGUAGCAAUAUUACGCGCA, the “self-splicing fitness (ln)” value is, setting by setting: (30 °C) -1.16 ± 0.14; (37 °C) -0.13 ± 0.15.

For the sequence UCAAAGCAAUAUUACGUCCA, the “self-splicing fitness (ln)” value (30 °C) is -1.19 ± 0.13 and the “self-splicing fitness (ln)” value (37 °C) was -0.715 ± 0.13.

For the sequence GGUUAGCAAUAUUACGACAU, the “self-splicing fitness (ln)” value was determined as 0.0748 ± 0.014 (30 °C) and 0.332 ± 0.034 (37 °C).

As for CGAGAGCAAUAUUACGUCGU, where the note is “37 °C”, the “self-splicing fitness (ln)” value was -3.09 ± 0.37.

With GACAAGCAAUAUUACGGGGC, the “self-splicing fitness (ln)” value (30 °C) was -3.36 ± 0.18 and the “self-splicing fitness (ln)” value (37 °C) was -2.81 ± 0.23.

As for GGUCAGCAAUAUUACGCUCU, the “self-splicing fitness (ln)” value is -1.58 ± 0.2 (30 °C) and 0.397 ± 0.34 (37 °C).

As to AAGUAGCAAUAUUACGAAAU, the “self-splicing fitness (ln)” value by setting is: (30 °C) -2.3 ± 0.2; (37 °C) -0.59 ± 0.18.

Regarding GUAGAGCAAUAUUACGCAGA, the “self-splicing fitness (ln)” value (37 °C) was -1.92 ± 0.32.

CGCAAGCAAUAUUACGAAUU: the “self-splicing fitness (ln)” value by setting is: (30 °C) -2.55 ± 0.2; (37 °C) -3.57 ± 0.46.

On to AGUGAGCAAUAUUACGAAUG, for which the “self-splicing fitness (ln)” value by setting is: (30 °C) -3.4 ± 0.36; (37 °C) -1.58 ± 0.3.

In the case of CUAAAGCAAUAUUACGGCUG, the “self-splicing fitness (ln)” value was 0.0357 ± 0.069 (30 °C) and -0.0492 ± 0.089 (37 °C).

Consider AAUUAGCAAUAUUACGGUCC, for which the “self-splicing fitness (ln)” value reads like this: (30 °C) -0.652 ± 0.12; (37 °C) 0.122 ± 0.15.

Turning to CAAAAGCAAUAUUACGGUUU, the “self-splicing fitness (ln)” value was -2.93 ± 0.11 (30 °C) and -1.21 ± 0.1 (37 °C).
